According to patent US20200069775A1, “BRAIN OSTEOCALCIN RECEPTOR AND COGNITIVE DISORDERS” (The Trustees of Columbia University in the City of New York, priority 2017, published 2020):

Target: T1, Gpr158 (Mus musculus, UniProt Q8C419)
T1 sequence (Q8C419 25-1200): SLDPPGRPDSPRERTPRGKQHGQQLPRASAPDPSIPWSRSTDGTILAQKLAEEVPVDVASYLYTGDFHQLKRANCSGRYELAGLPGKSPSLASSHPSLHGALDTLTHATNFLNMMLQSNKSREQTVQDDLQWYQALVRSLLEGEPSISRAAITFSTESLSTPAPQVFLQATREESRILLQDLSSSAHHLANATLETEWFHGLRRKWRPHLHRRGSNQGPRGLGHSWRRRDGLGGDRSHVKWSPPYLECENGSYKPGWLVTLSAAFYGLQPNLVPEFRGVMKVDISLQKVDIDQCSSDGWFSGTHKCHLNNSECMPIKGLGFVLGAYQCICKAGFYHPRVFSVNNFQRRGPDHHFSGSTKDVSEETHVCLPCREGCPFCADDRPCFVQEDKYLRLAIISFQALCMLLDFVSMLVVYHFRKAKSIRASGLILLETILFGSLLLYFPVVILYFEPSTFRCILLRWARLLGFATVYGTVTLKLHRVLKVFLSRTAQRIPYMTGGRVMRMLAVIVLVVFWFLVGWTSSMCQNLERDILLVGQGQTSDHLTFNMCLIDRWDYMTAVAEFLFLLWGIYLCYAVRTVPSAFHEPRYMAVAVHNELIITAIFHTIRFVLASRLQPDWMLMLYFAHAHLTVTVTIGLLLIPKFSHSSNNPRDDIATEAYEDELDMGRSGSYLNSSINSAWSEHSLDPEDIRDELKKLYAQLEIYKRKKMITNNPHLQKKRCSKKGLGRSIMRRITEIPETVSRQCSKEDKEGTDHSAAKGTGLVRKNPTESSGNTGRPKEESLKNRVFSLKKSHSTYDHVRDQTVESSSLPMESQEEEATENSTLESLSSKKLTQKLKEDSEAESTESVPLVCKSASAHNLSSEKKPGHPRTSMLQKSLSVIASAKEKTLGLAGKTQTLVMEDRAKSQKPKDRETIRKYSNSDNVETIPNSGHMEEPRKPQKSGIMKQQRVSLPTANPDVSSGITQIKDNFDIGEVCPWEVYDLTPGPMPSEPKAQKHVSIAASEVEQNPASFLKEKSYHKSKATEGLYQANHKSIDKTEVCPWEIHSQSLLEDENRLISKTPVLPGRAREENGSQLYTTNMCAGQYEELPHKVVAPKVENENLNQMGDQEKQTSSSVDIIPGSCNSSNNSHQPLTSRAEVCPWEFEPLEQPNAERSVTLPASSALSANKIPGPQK
Assay: Bdnf expression (qPCR) in WT and Gpr158−/− hippocampal neurons
Format: cell-based
Set-up: visually identified pyramidal neurons in the CA3 area of the hippocampus; from tissue; host or cells: coronal hippocampal slices of 3-4 week old male WT and Gpr158-/- mice
Conditions: WT vs Gpr158−/− hippocampal neurons, 4 hours
Procedure: FIG. 15. Function analysis of Osteocalcin signaling through Gpr158. (Panel a) IP1 accumulation in WT and Gpr158−/− hippocampal neurons (DIV 15) treated with either vehicle or osteocalcin for 1 hour. Glutamate was used as a positive control. (Panel b) Expression (qPCR) of Th and Bdnf in the midbrain of 6 month-old Gpr158+/− and WT littermates. (Panel c) Expression (qPCR) of Bdnf in WT and Gpr158−/− hippocampal neurons (DIV 15) treated with either vehicle or osteocalcin for 4 hours. (Panel d) Osteocalcin's effect on spontaneous action potential (AP) frequency in CA3 pyramidal neurons in WT (4 of 4 cells) and Gpr158−/− mice. The bars above the recording traces indicate the application of osteocalcin. […] Number of entries and time spent (s) in the open arms were scored. […] Time spent in the lit compartment and open arms was measured. […] Total ambulation (cm) and time spent in the center of the arena (s) were measured. […] Preference index (time spent with novel object/total exploration time) was measured. […] Preference index (time spent with novel object/total exploration time) was measured. […] Percent freezing 24 hours after training was measured. […]
RNA was isolated from brain tissue using TRIZOL (Invitrogen). cDNA synthesis was performed following standard protocol, q-PCR analyses were done using specific quantitative PCR primers (sequences available upon request), and expressed relative to Gapdh levels. […]

For “osteocalcin: Recombinant osteocalcin bacterially produced, cleaved from the GST subunit; completely undercarboxylated at all three sites; full-length mouse osteocalcin (YLGASVPSPDPLEPTREQCELNPACDELSDQYGLKTAYKRIYGITI)”, which Bdnf expression is on record?
Its Bdnf expression is “increased Bdnf expression in WT significantly more than in Gpr158−/− hippocampal neurons”.
